Reference: patent publication US9096835B2, “DNA polymerase” (Medical Research Council, priority 2003, dated 2015)
Entries after “also recorded” stand apart in the source; their conditions may differ.

How the values were obtained:
Format in all cases: biochemical
four mismatch primers = assay: PCR screen of clones with four mismatch primers; conditions: 292 base pair product, 50 cycles of PCR
Procedure: The resultant clones from both CSR and CST were screened and ranked by PCR assay. Briefly, 2 μl of induced cells were added to 20 μl of PCR mix with the relevant 4 mismatch primers. Clones that produced a band were then subjected to further analysis and their activity on single, double and quadruple mismatch primers (single mismatch primers: 5′-CAGGAAACAGCTATGACAAAAATCTAGATAACGAGGGA-3′ (SEQ ID NO: 48) and 5′-GTAAAACGACGGCCAGTACCACCGAACTGCGGGTGACGCCAAGCC 3′ (SEQ ID NO: 49); double mismatch primers: CAGGAAACAGCTATGACTCGACAAAAATCTAGATAACGACC (SEQ ID NO: 50) and GTAAAACGACGGCCAGTTTATTAACCACCGAACTGC (SEQ ID NO: 51); four mismatch primers above.) was investigated. Polymerases that could extend all of these mismatches were found, though many polymerases could do only one of the mismatches and […].
The best first and second round clones were shuffled as described above and subjected to another round of CSR. The same two sets of mismatch primers with four mismatches at their 3′ end were used in the emulsion as two separate sources of selective pressure. This was then dealt with as above and the resultant clones were screened and ranked by PCR assay (as above). Once again, polymerases that could extend all of these mismatches were found. In particular, clones 3B5.

[1] = system: template containing an abasic site; assay: Translesion replication assay (primer extension), abasic site; conditions: gel-extension assay, 60° C.
Procedure: (§1) Template primers 22 (undamaged) or 23 (containing a synthetic abasic site) were synthesized by Lofstrand Laboratories (Gaithersburg, Md.). Template primer 24 (containing a single cis-syn thymine dimer), was synthesized as described (34). Primer 25 was ^32P-labeled and annealed to one of the three templates 22, 23, 24 (at a primer template ratio of molar 1:1.5) and extended in 40 mM Tris.HCl at pH 8.0, 5 mM MgCl2, 100 μM of each dNTP, 10 mM DTT, 250 μg/ml BSA, 2.5% glycerol, 10 nM primer-template DNA and 0.1 Unit of polymerase at 60° C. for various times.
(§2) Primer extension assays were essentially as described in (Ghadessy et al., 2004). Briefly, undamaged oligonucleotides and a 51mer containing a synthetic abasic site were synthesized by Lofstrand Laboratories (Gaithersburg, Md.) using standard techniques and were gel purified prior to use. A 20mer primer (LES—20 P) with the sequence 5′-[…]-3′ (SEQ ID NO: 99) was 5′-labeled with [^32P]ATP (5000 Ci/mmole; 1 Ci=37 GBq) (Pharmacia) using T4 polynucleotide kinase (Invitrogen, Carlsbad Calif.). Radiolabeled primer-template DNAs were prepared by annealing the 5′[^32P] labeled 20mer primer to one of the two following 51mer templates (at a primer template ratio of molar 1:1.5). 1) undamaged DNA (UNDT51T); 5′-AGCTACCATGCCTGCACGAATTCGGCATCCGTCGCGACCACGGTCGCAGCG-3′ (SEQ ID NO: 100); 2) an oligo (LABA51T) containing a synthetic abasic site (indicated as an X in bold font); 5′-AGCTACCATGCCTGCACGACA XCG GCATCCGTCGCGACCACGGTCGCAGCG-3′ (SEQ ID NO: 101). Standard replication reactions of 10 contained 40 mM Tris.HCl at pH 8.0, 5 mM MgCl2, 100 μM of each ultrapure dNTP (Amersham Pharmacia Biotech, NJ), 10 mM DTT, 250 μg/ml BSA, 2.5% glycerol, 10 nM 5′[32P] primer-template DNA and 0.1 Unit of polymerase. After incubation at 60° C. for various times reactions were terminated by the addition of 10 μl of 95% formamide/10 mM EDTA and the samples heated to 100° C. for 5 min. Reaction mixtures (5 μl) were subjected to 20% polyacrylamide/7 M Urea gel electrophoresis and replication products visualized by PhosphorImager analysis.

[2] = system: primers with an abasic site seven bases from their 3′ end; assay: Abasic site bypass in PCR; conditions: 176 bp product, 20 cycles of PCR
Procedure: FIG. 10. A list of polymerases selected to extend four mismatches were assayed for their ability to extend abasic sites in PCR. Primers with an abasic site seven bases from their 3′ end were designed. Such primers will prevent exponential amplification of the target sequence, restricting it to […] amplification, unless the abasic site is bypassed. […] (A) Screen which identified clone A10. (B) A further 4 polymerases that display good abasic site bypass. Lane M: markers, Hae III digest of Φ X174.
A list of polymerases selected to extend four mismatches were assayed for their ability to extend abasic sites in PCR (FIG. 10).

[3] = system: template containing a cis-syn cyclobutane thymine-thymine dimer (CPD); assay: Translesion replication assay (primer extension), CPD; conditions: gel-extension assay, 60° C.
Procedure: as §1, §2

[4] = system: primers with 3′ transversion mismatches; assay: Mismatch extension PCR assay; conditions: G•A, C•C, G•G mismatched primers
Procedure: A PCR assay was used to screen and rank clones. Briefly, clones were normalized for activity in PCR with matched primers 3, 4 and activity with mismatched primers 1 and 2 (1 μM each) determined at minimal cycle number (15-25 cycles). Extension capability for different mismatches was determined by the same assay using mismatch primers 2 (C•C mismatch), 5 (A•A mismatch), 6 (G•G mismatch), 7 (G•A mismatch) with matched primer 3 or primer 1 (A•G mismatch) with matched primer 4. Incorporation of unnatural substrates in 50 cycle PCR was carried out using standard conditions and 50 μM […] dNTPs (Promega) or 50 μM FITC-12-dATP (Perkin-Elmer), Rhodamine-5-dUTP (Perkin-Elmer) or Biotin-16-dUTP (Roche) with equivalent amounts of the other 3 dNTPs (all 50 μM). Long PCR was carried out using a two-step cycling protocol as described (22) 94° C. for 2 minutes, followed by 20 cycles of (94° C. 15 sec, 68° C. 30 min) using 5 ng of phage λ DNA (New England Biolabs) template and either primers 9, 10, 11 with primer 12 or primer 13 with primers 10, 14.

undamaged template = assay: Translesion replication assay, control; conditions: gel-extension assay, 60° C.
Procedure: as §1

| Molecule | extension of primers containing four mismatches in PCR (four mismatch primers) | extension of primers containing four mismatches in PCR (four mismatch primers; listed as D1) | abasic site bypass in primer extension [1] | amplification product in PCR with abasic site primers [2] | abasic site bypass in primer extension ([1]; listed as A10) | CPD bypass in primer extension ([3]; listed as A10) | extension of 3′ transversion mismatches in PCR [4] | primer extension on undamaged template (undamaged template) | CPD bypass in primer extension [3] |
| --- | --- | --- | --- | --- | --- | --- | --- | --- | --- |
| 3D1: third round clone, four mismatch extension; SEQ ID NO: 98 (protein, Mutant Taq polymerase) MAMLPLFEPKGRVLLVDGHHLAYRTFFALKGPTTSRGEPVQVVYGFAKSLLKALKEDGYKAVFVVFDAKAPSFRHKAYEAYRAGRAPTPEDFPRQLALIKELVDLLGFTRLEVPGYEADDVLATLAKKAEKEGYEVRILTADRGLYQLVSDRVAVLHPEGHLITPEWLWEKYGLRPEQWVDFRALVGDPSDNLPGVKGIGEKTALKLLKEWGSLENLLKNLDRVKPENVREKIKAHLEDLRLSLELSRVRTDLPLEVDLAQRREPDREGLRAFLERLEFGSLFHEFGLLESPKALEEAPWPPPEGAFVGFVLSRKEPMWADLLALAAARGGRVHRAPEPYKALRDLKEARGLLAKDLSVLALREGLGLPPGDDPMLLAYLLDPSNTTPEGVARRYGGEWTEEAGERAALSERLFANLWGRLEGEERLLWLYREVERPLSAVLAHMEATGVRLDVAYLRALSLEVAEEIARLEAEVFRLAGHPFNLNSRDQLEMVLFDELRLPALGKTQKTGKRSTSAAVLEALREAHPIVEKILQYRELTKLKSTYIDPLSDLIHPRTGRLHTRFNQTATATGRLSSSDPNLQNIPVRTPLGQRIRRAFIAEEGWLLVVLDYSQIELRVLAHLSGDENLIRVFQEGRDIHTETASWMFGVPREAVDPLMRRAAKTINFGVLYGMSAHRLSQELAIPYEEAQAFIERYFQSFPKVRAWIEKTLEEGRRRGYVETLFGRRRYVPDLEARVKSVREAAERMAFNMPVQGTAADLMKLAMVKLFPRLGETGARMLLQVHDELVLEAPKERAEAVARLAKEAMEGVYPLAVPLEVEVGIGEDWLSAKG | able to extend primers containing four mismatches | can also extend four mismatched primers in PCR | clearly display better abasic site bypass than either wtTaq or M1 | produced an amplification product |  |  |  |  |  |
| 3A10: third round clone, abasic site bypass; SEQ ID NO: 86 (protein, Mutant Taq polymerase) MAMLPLFEPKGRVLLVDGHHLAYRTFFALKGLTTSRGEPVQVVYGFAKSLLKALKEDGYKAVFVVFDAKAPSFRHKAYEAYRAGRAPTPQDFPRQLALIKELVDLLGFTRLEVPGYEADDVLATLAKKAEKEGYEVRILTADRGLYQLVSDRVAVLHPEGHLITPEWLWEKYGLRPEQWVDFRALVGDPSDNLPGVKGIGEKTALKLLKEWGSLENLLKNLDRVKPENVREKIKAHLEDLRLSLELSRVRTDLPLEVDLAQGREPDREGLRAFLERLEFGSLLHEFGLLESPKALEEAPWPPPEGAFVGFVLSRKEPMWADLLALAAARGGRVHQAPEPYKALRDLKEARGLLAKDLSVLALREGLGLPPGDDPMLLAYLLDPSNTTPEGVARRYGGEWTEEAGERAALSERLFANLWGRLEGEERLLWLYREVERPLSAVLAHMETTGVRLDVAYLRALSLEVAEEIARLEAEVFRLAGRPFNLNSRDQLERVLFDELGLPAIGKTEKTGKRSTSAAVLEALREAHPIVEKILQYRELTKLKSTYIDPLPDLIHPRTGRLHTRFNQTATATGRLSSSDPNLQNIPVRTPLGQRIRRAFIAEEGWLLVVLDYSQMELRVLAHLSGDENLIRVFQEGKDIHTQTASWMFGVPPEAVDPLMRRAAKTVNFGVLYGMSAHRLSQELSIPYEEAVAFIERYFQSFPKVRAWIEKTLEEGRRRGYVETLFGRRRYVPDLNARMKSVRGAAERMAFNMPVQGTAADLMKLAMVKLFPRLREMGARMLLQVHDELLLEAPQARAEEVAALAKEAMEKAYPLAVPLEVEVGIGEDWLSAKE | cannot |  |  | produced an amplification product | clearly better at both abasic site and CPD extension and bypass than both wild type and M1; also recorded: clearly display better abasic site bypass than either wtTaq or M1 | clearly better at both abasic site and CPD extension and bypass than both wild type and M1; also recorded: superior elongation and bypass when compared to wild type |  |  |  |
| M4: Taq mutant D58G, R74P, A109T, L245R, R343G, G370D, E520G, N583S, E694K, A743P; SEQ ID NO 2 (protein, Mutant Thermus aquaticus DNA polymerase) MRGMLPLYEPKGRVLLVDGHHLAYRTFHALKGLTTSRGEPVQAVYGFAKSLLKALKEGGDAVIVVFDAKAPSFPHEAYGGYKAGRAPTPEDFPRQLALIKELVDLLGLTRLEVPGYEADDVLASLAKKAEKEGYEVRILTADKDLYQLLSDRIHVLHPEGYLITPAWLWEKYGLRPDQWADYRALTGDESDNLPGVKGIGEKTARKLLEEWGSLEALLKNLDRLKPAIREKILAHMDDLKLSWDRAKVRTDLPLEVDFAKRREPDRERLRAFLERLEFGSLLHEFGLLESPKALEEAPWPPPEGAFVGFVLSRKEPMWADLLALAAARGGRVHRAPEPYKALGDLKEARGLLAKDLSVLALREGLGLPPDDDPMLLAYLLDPSNTTPEGVARRYGGEWTEEAGERAALSERLFANLWGRLEGEERLLWLYREVERPLSAVLAHMEATGVRLDVAYLRALSLEVAEEIARLEAEVFRLAGHPFNLNSRDQLERVLFDELGLPAIGKTEKTGKRSTSAAVLGALREAHPIVEKILQYRELTKLKSTYIDPLPDLIHPRTGRLHTRFNQTATATGRLSSSDPNLQSIPVRTPLGQRIRRAFIAEEGWLLVALDYSQIELRVLAHLSGDENLIRVFQEGRDIHTETASWMFGVPREAVDPLMRRAAKTINFGVLYGMSAHRLSQELAIPYEEAQAFIKRYFQSFPKVRAWIEKTLEEGRRRGYVETLFGRRRYVPDLEARVKSVREPAERMAFNMPVQGTAADLMKLAMVKLFPRLEEMGARMLLQVHDELVLEAPKERAEAVARLAKEVMEGVYPLAVPLEVEVGIGEDWLSAKE |  |  | able to extend past the lesion and to the end of the template |  |  |  | greatly increased ability to extend; also recorded: generate amplification products | efficiently and rapidly extended primers to the end of the template | able to readily extend all of the primer to the 3′T of the dimer |
